This is an account of results in patent US20160051688A1 (Indiana University Research and Technology Corporation, priority 2010, published 2016).

One experiment has as its target glucagon receptor (UniProt P47871). The experiment is described as follows: cell-based or functional assay.
For a further experiment, the target named is GLP-1 receptor (UniProt P43220). The experiment is described as follows: cell-based or functional assay.
The target of another experiment is T1, GPR119 (Homo sapiens, UniProt Q8TDV5).
T1 construct: expressed in transfected cells; host or cells: CHO
T1 sequence (Q8TDV5 1-335): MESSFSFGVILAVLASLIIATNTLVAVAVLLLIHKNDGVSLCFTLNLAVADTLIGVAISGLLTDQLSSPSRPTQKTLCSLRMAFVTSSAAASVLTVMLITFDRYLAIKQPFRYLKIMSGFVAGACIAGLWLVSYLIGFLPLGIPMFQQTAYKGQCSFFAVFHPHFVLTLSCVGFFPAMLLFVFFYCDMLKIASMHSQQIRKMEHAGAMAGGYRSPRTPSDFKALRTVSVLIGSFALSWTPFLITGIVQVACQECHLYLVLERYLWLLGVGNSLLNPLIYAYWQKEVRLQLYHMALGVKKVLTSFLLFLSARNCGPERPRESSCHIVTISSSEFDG
To be noted: CHO cells expressing GPR119; cited from earlier work.

Sequence of glucagon receptor (P47871 26-477 limits assumed): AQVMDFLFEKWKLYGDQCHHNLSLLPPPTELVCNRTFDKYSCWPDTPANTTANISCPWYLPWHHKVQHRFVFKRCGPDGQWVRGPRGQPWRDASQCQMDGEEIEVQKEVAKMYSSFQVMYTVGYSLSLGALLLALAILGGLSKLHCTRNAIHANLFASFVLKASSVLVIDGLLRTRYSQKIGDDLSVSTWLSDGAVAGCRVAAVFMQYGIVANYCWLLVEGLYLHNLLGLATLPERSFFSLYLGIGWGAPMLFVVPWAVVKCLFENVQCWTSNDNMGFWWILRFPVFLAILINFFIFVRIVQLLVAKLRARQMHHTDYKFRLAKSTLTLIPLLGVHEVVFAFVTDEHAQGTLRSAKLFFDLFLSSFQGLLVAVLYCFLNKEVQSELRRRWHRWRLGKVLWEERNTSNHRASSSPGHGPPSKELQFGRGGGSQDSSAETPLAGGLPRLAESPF
Sequence of GLP-1 receptor (P43220 24-463 limits assumed): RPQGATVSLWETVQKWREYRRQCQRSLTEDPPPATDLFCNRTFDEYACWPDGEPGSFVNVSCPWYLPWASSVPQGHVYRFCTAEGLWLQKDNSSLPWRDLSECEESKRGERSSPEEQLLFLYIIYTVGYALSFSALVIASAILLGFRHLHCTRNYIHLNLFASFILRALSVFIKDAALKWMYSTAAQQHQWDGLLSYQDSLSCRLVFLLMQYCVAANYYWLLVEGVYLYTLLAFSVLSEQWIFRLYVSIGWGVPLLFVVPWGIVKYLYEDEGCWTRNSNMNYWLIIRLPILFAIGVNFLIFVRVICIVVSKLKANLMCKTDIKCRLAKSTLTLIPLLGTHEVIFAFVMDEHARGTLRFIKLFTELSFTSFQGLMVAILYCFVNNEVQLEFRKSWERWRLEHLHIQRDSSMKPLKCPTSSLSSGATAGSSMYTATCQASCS

In the case of “[E9, E16K20(lactam), D28]G(2~29) (peptide)”, in the experiment with glucagon receptor, the Glucagon IC50 (nM); PA = partial antagonist worked out at 49 nM.
In the experiment with glucagon receptor, “E9, K12, E16 glucagon(6-39) Cex peptide (Peptide 1 of Table 13)” came in with a Glu ICso of 762 nM and a Glucagon IC50 of 762 nM.
In the experiment with GLP-1 receptor, “E9, E16K20(lactam) glucagon(6-39) Cex peptide (Peptide 3 of Table 13)” yielded a GLP-1 EC50 of 36 nM and a GLP-1 ECso of 36 nM. For the same compound, in the experiment with glucagon receptor, the Glu ICso was 42 nM and the Glucagon IC50 worked out at 42 nM.
Take platelet-activating factor: the cAMP levels result on GPR119 is given as “increased cAMP levels”.
On to `CCCCCCCCCCCCCCCCOC[C@@H](O)COP(=O)([O-])OCC[N+](C)(C)C` [lyso-platelet activating factor], for which, on GPR119, the cAMP levels result is “increased cAMP levels”.
In the experiment with GLP-1 receptor, “E9, K12E16(lactam) glucagon(6-39) Cex peptide (Peptide 2 of Table 13)” gave a GLP-1 EC50 of 63 nM and a GLP-1 ECso of 63 nM. Also, in the experiment with glucagon receptor, the Glu ICso is 2010 nM and the Glucagon IC50 stood at 2010 nM.
In the experiment with GLP-1 receptor, “D9, K12E16(Lactam) glucagon(6-39) Cex peptide (Peptide 4 of Table 13)” had a GLP-1 EC50 of 18 nM and a GLP-1 ECso of 119 nM. In the experiment with glucagon receptor, the Glu ICso is 828 nM and the Glucagon IC50 was found to be 828 nM.
